Measurements as given in article PMC4356366, “Structures of the human Pals1 PDZ domain with and without ligand suggest gated access of Crb to the PDZ peptide-binding groove” (Acta Crystallographica Section D: Biological Crystallography, 2015).
Changes are numbered by the printed parent chain. Names and notes keep the numbering of the source. Values joined by “and” are separate entries in the source; they are usually repeats but may differ in a detail not shown here. Equal entries are not always repeated. “Also recorded” adds a separate entry of the source. Ends that are not written are not given here.

T1: human Pals1 PDZ domain (Pals1^PDZ; residues 251–335) (Homo sapiens, UniProt Q8N3R9)
T1 construct: the PDZ domain of human Pals1 (Pals1^PDZ; residues 251–335); GST (N, cleaved yes); made in house; host or cells: Escherichia coli FB810
T1 sequence (Q8N3R9 251-335): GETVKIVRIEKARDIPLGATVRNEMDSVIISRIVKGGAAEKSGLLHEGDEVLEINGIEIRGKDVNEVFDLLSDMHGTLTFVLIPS

T2: human Pals1 PDZ domain (Pals1^PDZ; residues 251-335), wild type (human, UniProt Q8N3R9 251-335)
T2 chain: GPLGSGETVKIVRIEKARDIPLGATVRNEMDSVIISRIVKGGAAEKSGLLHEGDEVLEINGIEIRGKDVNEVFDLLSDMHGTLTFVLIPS

T3: human Pals1 PDZ domain (Pals1^PDZ; residues 251-335), wild type (human, UniProt Q8N3R9 251-335)
T3 construct: vector-derived residues Gly-Pro-Leu-Gly-Ser at the amino-terminus of Pals1^PDZ, left after removal of GST; Pals1 (MPP5), human, PDZ domain, residues 251-335; also called MPP5; protein associated with Lin-7; source: E. coli FB810, purified (glutathione Sepharose 4B, GST removed with GST-3C protease, Superdex S75)
T3 sequence: T2 chain

T4: human Pals1 PDZ domain F318A mutant (human, UniProt Q8N3R9 251-335, F318A)
T4 sequence: T2 chain with F73A

T5: human Pals1 PDZ domain F318C mutant (human, UniProt Q8N3R9 251-335, F318C)
T5 construct: Pals1 (MPP5), human, PDZ domain, residues 251-335, F318C; The methods name only the wild type and F318A; also called Pals1^PDZ F318C
T5 sequence (looked up): T1 sequence (Q8N3R9 251-335) with F68C

B1: human Pals1 PDZ domain (Pals1^PDZ; residues 251-335), wild type (domain or fragment)
chain: T2 chain
B2: fluorescein-labelled Crb^17 M1402A (peptide)
peptide: RVEMWNLMPPPAAERLI
modifications: also: fluorescein label, position not given here
B3: fluorescein-labelled Crb^17 L1405A (peptide)
peptide: RVEMWNLMPPPAMERAI
modifications: also: fluorescein label, position not given here
B4: fluorescein-labelled shorter Crb1 peptide spanning residues 1401-1406 (Crb^6) (peptide)
peptide: AMERLI
modifications: also: fluorescein label, position not given here
B5: fluorescein-labelled human Crb1 peptide, residues 1390-1406 (Crb^17) (peptide)
peptide: RVEMWNLMPPPAMERLI
modifications: also: fluorescein label, position not given here
notes: also called fluorescein-labelled Crb^17; Crumbs peptide (homologue 1)
B6: human Pals1 PDZ domain F318A mutant (domain or fragment)
chain: T2 chain with F73A
notes: vector-derived residues Gly-Pro-Leu-Gly-Ser at the amino-terminus of Pals1^PDZ, left after removal of GST (told for the wild type, same preparation); Pals1 (MPP5), human, PDZ domain, residues 251-335, F318A; also called Pals1^PDZ F318A; source: E. coli FB810, purified (glutathione Sepharose 4B, GST removed with GST-3C protease, Superdex S75)
B7: fluorescein-labelled Crb^17 R1404A (peptide)
peptide: RVEMWNLMPPPAMEALI
modifications: also: fluorescein label, position not given here
B8: fluorescein-labelled Crb^17 E1403A (peptide)
peptide: RVEMWNLMPPPAMARLI
modifications: also: fluorescein label, position not given here

Assays:
[1] = molecular target: T1, human Pals1 PDZ domain (Pals1^PDZ; residues 251–335); assay: Fluorescence polarization binding assay, fluorescein-labelled Crb peptides with Pals1^PDZ; conditions: Fp, fluorescein-labelled peptide 50 nM, protein 0 to 300 µM, 20 mM HEPES pH 7.5, 100 mM NaCl, 1 mM DTT, read after 5 min; measured in parallel from the same Pals1 preparation; representative of three independent experiments
Procedure: Fluorescence polarization (Fp) assays were performed to determine the K d for each peptide following a previously described protocol (Guettler et al., 2008[▶]). Binding assays were performed in 20 mM HEPES pH 7.5, 100 mM NaCl, 1 mM DTT. The reaction mixtures contained a fixed concentration of fluorescein-labelled peptide (50 nM) and a protein concentration ranging from 0 to 300 µM depending on the dissociation constant. The 20 µl reactions were carried out in a 384-well plate and measured after 5 min using a Tecan Safire2 plate reader with excitation at 470 nm and emission at 525 nm. The anisotropy values were normalized and the K d values were determined using nonlinear regression with the graphics program Prism (Heyduk & Lee, 1990[▶]).
To characterize the interaction between the PDZ domain of human Pals1 (Pals1^PDZ; residues 251–335) and the intracellular segment of human Crb1 in vitro, we used fluorescence polarization (Fp) assays with a fluorescein-labelled peptide containing 17 carboxy-terminal residues 1390–1406 (defined hereafter as Crb^17). […] The Pals1^PDZ–Crb^17 interaction was stable to size-exclusion chromatography as detected from the Crb^17 intrinsic tryptophan fluorescence (data not shown). […]

[2] = molecular target: Individual Crb^17 substitutions E1403A, R1404A and L1405A; assay: fluorescence polarisation; fixed fluorescein-labelled peptide (50 nM), Pals1 PDZ protein titrated 0 to 300 µM; 20 mM HEPES pH 7.5, 100 mM NaCl, 1 mM DTT; 20 µl in 384-well plate, read after 5 min
[3] = molecular target: T2, human Pals1 PDZ domain (Pals1^PDZ; …); assay: FP
[4] = molecular target: T3, human Pals1 PDZ domain (Pals1^PDZ; …); assay: fluorescence polarisation; fixed fluorescein-labelled peptide (50 nM), Pals1 PDZ protein titrated 0 to 300 µM; 20 mM HEPES pH 7.5, 100 mM NaCl, 1 mM DTT; 20 µl in 384-well plate, read after 5 min; conditions: both partners purified
[5] = molecular target: T4, human Pals1 PDZ domain F318A mutant; assay: FP
[6] = molecular target: T5, human Pals1 PDZ domain F318C mutant; assay: fluorescence polarisation; fixed fluorescein-labelled peptide (50 nM), Pals1 PDZ protein titrated 0 to 300 µM; 20 mM HEPES pH 7.5, 100 mM NaCl, 1 mM DTT; 20 µl in 384-well plate, read after 5 min; conditions: both partners purified
[7] = molecular target: B5; assay: as above; conditions: both partners purified

Molecule	Kd [3] [µM]	binding result [4]	further results
Crb^17 I1406A: Crb^17 peptide with carboxy-terminal Ile1406 replaced by alanine, fluorescein-labelled (RVEMWNLMPPPAMERLA; also: fluorescein label, position not given here)			dissociation constant (Kd) for Pals1^PDZ [1]: completely abolished detectable binding; also recorded: Not detectable
B1			Kd [2]: 52 to 55 µM
B2	8.1	binds	
B3	55.3	binds	
B4	16.8	binds	
B5			Kd [5]: 1.8 µM; Kd [6]: 5 µM; Kd [4]: 9.2 µM and 12.4 µM
B6			fold tighter binding than wild-type Pals1^PDZ [7]: 5 fold
B7	51.5	binds	
B8	53.1	binds	
